{"source": "patent US20190359951", "assay_in_all_cases": "cell_activity", "key": {"[1]": {"test_system": "TALE #28-LSD1 fusion (ZFPM2 +45 enhancer) (synthetic construct; LSD1 Homo sapiens)", "conditions": "K562; histone modification levels reduced at target; expression change not statistically significant; +45 assigned to #28 from coordinates"}, "[2]": {"test_system": "TALE #14-LSD1 fusion (synthetic construct; LSD1 Homo sapiens)", "conditions": "K562 3'DGE confirmed by RT-qPCR; #14 identified via cDNA qPCR primer set in Table 2"}, "[3]": {"test_system": "TALE #11-LSD1 fusion (ZFPM2 +16 enhancer) (synthetic construct; LSD1 Homo sapiens)", "conditions": "K562; histone modification levels reduced at target; expression change not statistically significant; +16 assigned to #11 from coordinates"}, "[4]": {"test_system": "SCL enhancer TALE-LSD1 fusion (synthetic construct; LSD1 Homo sapiens)", "conditions": "K562 ChIP-qPCR vs mCherry; H3K27ac reduced >4-fold; target assigned to #4 by inference"}, "[5]": {"test_system": "TALE #25-LSD1 fusion (ZFPM2 +10 enhancer) (synthetic construct; LSD1 Homo sapiens)", "conditions": "K562 RT-qPCR; TALE #25 without LSD1 had no effect on ZFPM2"}}}
{"sequence": "TAAGTCTACATATAGTATCC (double strand) [TALE #28 target chr8:106,376,850]", "values": [{"measurement": "activity (% ZFPM2 expression reduction)", "setting": "[1]", "result": 22}]}
{"sequence": "TAGCCGCGAGGAAGGCG (double strand) [TALE #14 target chrX:49,023,709]", "values": [{"measurement": "activity (fold nearby gene down-regulation)", "setting": "[2]", "result": "> 1.5"}]}
{"sequence": "TCCAGTCCCTGGCTCCCATG (double strand) [TALE #11 target chr8:106,347,824]", "values": [{"measurement": "activity (% ZFPM2 expression reduction)", "setting": "[3]", "result": 13}]}
{"sequence": "TCCGTGGCTGCCAGTCTG (double strand) [SCL enhancer TALE target (TALE #4, chr1:47,647,018)]", "values": [{"measurement": "activity (fold H3K4me2 reduction)", "setting": "[4]", "result": 3}]}
{"sequence": "TTAAGCTTCTGAAGTCAG (double strand) [TALE #25 target chr8:106,341,287]", "values": [{"measurement": "activity (fold ZFPM2 expression reduction)", "setting": "[5]", "result": 2}]}
